{
  "source": "patent US20200057058A1",
  "about": "(MIT, published 2020)",
  "binders": {"B1": {"name": "rcSso7d.SA monolayer (designed binder)", "chain": "MGSIHHHHHHSSGLVPRGSHMCATVKFTYQGEEKQVDISKIKIVARDGQYIDFKYDEGGGAYGYGWVSEKDAPKELLQMLEKQ", "modifications": "EDC/NHS-activated protein coupled to an amine-functionalized silicon wafer", "notes": "also called monomeric rcSso7d.SA; surface-immobilized rcSso7d.SA"}},
  "key": {"streptavidin [1]": {"target": "T1, streptavidin (UniProt P22629 37-163, limits assumed)", "T1 construct": "It was used without a stated label in the sandwich assays; also called SA", "T1 sequence (P22629 37-163 limits assumed)": "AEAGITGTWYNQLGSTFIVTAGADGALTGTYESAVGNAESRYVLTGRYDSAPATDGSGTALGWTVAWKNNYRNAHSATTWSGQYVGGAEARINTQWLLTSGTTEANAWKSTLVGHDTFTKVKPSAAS", "test": "fluorescent binding curve, labeled SA in 50% urine, 4 h; quadratic fit"}, "streptavidin [2]": {"target": "T1, streptavidin", "test": "fluorescent binding curve, labeled SA in 50% blood serum, 4 h; quadratic fit"}, "[3]": {"target": "monomeric streptavidin variant mSA2", "test": "fluorescent binding curves, labeled mSA2 in 50% urine or 50% blood serum, 4 h"}, "streptavidin [4]": {"target": "T1, streptavidin", "test": "sandwich assay: SA in 50% urine, biotin-HRP/TMB detection"}, "[5]": {"target": "monomeric streptavidin variant mSA2", "test": "fluorescent binding curve, labeled mSA2 in PBS, 4 h exposure; quadratic fit", "method": "The binding function of rcSso7d.SA oligomer-PNIPAM thin films was measured using fluorescently-labeled monomeric streptavidin (mSA2) and fluorescently-labeled streptavidin (SA). Details for the expression, purification, and fluorescent labeling of mSA2 are provided below. Samples were prepared by serial dilution of SA or mSA2 in PBS (pH 7.4), human urine (diluted to 50% v/v in PBS, pH 7.4), or blood serum (obtained as the supernatant by centrifuging whole blood at 1500×g for 10 minutes, then diluted to 50% v/v in PBS, pH 7.4). 0.5 μL drops of solutions containing serially diluted fluorescent mSA2 and fluorescent SA samples in PBS (pH 7.4) were gently applied to the surface of each bioconjugate thin film. Films were incubated in a sealed chamber saturated with water vapor at room temperature to prevent to prevent drying of the applied fluorescent samples. […] Fluorescence microscopy images were acquired at 4× magnification using a Cy5 filter set and exposure time of 5000 ms on an Olympus IX-81 inverted fluorescence microscope with an AxioCam HRC CCD camera. Fluorescent intensity was calculated using ImageJ software⁶⁷ by determining the average fluorescent signal in a rectangular area of the fluorescent image free of defects and occupying no less than half of the full sample application area.\nTo evaluate how the apparent size-based diffusion properties translated to biosensing capabilities, binding curves were measured using SA and mSA2 solutions in buffer. Binding curves were fit with a quadratic model that is a function of three parameters: the average MFI per binding event a, the total concentration of binding sites [P]T, and the apparent dissociation constant K_{d,app} describing the binding equilibrium between analyte and binding sites within the thin film."}, "streptavidin [6]": {"target": "T1, streptavidin", "test": "fluorescent binding curve, labeled SA in PBS, 4 h exposure; quadratic fit"}, "streptavidin [7]": {"target": "T1, streptavidin", "test": "sandwich assay: SA in 50% blood serum, biotin-HRP/TMB detection"}, "[8]": {"target": "monomeric streptavidin variant mSA2", "test": "fluorescent binding assay: labeled mSA2 in PBS applied to the protein monolayer, rinsed, fluorescence microscopy", "method": "The binding function of rcSso7d.SA oligomer-PNIPAM thin films was measured using fluorescently-labeled monomeric streptavidin (mSA2) and fluorescently-labeled streptavidin (SA). Details for the expression, purification, and fluorescent labeling of mSA2 are provided below. Samples were prepared by serial dilution of SA or mSA2 in PBS (pH 7.4), human urine (diluted to 50% v/v in PBS, pH 7.4), or blood serum (obtained as the supernatant by centrifuging whole blood at 1500×g for 10 minutes, then diluted to 50% v/v in PBS, pH 7.4). 0.5 μL drops of solutions containing serially diluted fluorescent mSA2 and fluorescent SA samples in PBS (pH 7.4) were gently applied to the surface of each bioconjugate thin film. […] After 1 hour, films were thoroughly rinsed with water for 10 seconds (a time determined to be sufficient to remove unbound molecules from the film, see FIG. 33, dried under filtered airflow, and immediately analyzed for fluorescent signal. Fluorescence microscopy images were acquired at 4× magnification using a Cy5 filter set and exposure time of 5000 ms on an Olympus IX-81 inverted fluorescence microscope with an AxioCam HRC CCD camera. Fluorescent intensity was calculated using ImageJ software⁶⁷ by determining the average fluorescent signal in a rectangular area of the fluorescent image free of defects and occupying no less than half of the full sample application area. […]"}, "streptavidin [9]": {"target": "T1, streptavidin", "test": "apparent Kd (Kd,app); fluorescent binding curve, labeled SA in PBS, 4 h exposure; quadratic fit"}},
  "data": [
    {"binder": "B1", "values": [
      {"measurement": "[P]T (total concentration of binding sites)", "setting": "streptavidin [1]", "value": 0.29, "unit": "nM"},
      {"measurement": "[P]T (total concentration of binding sites)", "setting": "streptavidin [2]", "value": 0.28, "unit": "nM"},
      {"measurement": "sensitivity in the fluids relative to buffer", "setting": "[3]", "value": "≤ 10", "unit": "fold"},
      {"measurement": "LOD", "setting": "streptavidin [4]", "value": 32, "unit": "nM"},
      {"measurement": "[P]T (total concentration of binding sites)", "setting": "[5]", "value": 0.35, "unit": "nM"},
      {"measurement": "[P]T (total concentration of binding sites)", "setting": "streptavidin [6]", "value": 0.36, "unit": "nM"},
      {"measurement": "LOD", "setting": "streptavidin [7]", "value": 40, "unit": "nM"},
      {"measurement": "EC50 (read off the curve)", "setting": "[8]", "value": "~2", "unit": "µM"},
      {"measurement": "Kd", "setting": "streptavidin [9]", "value": 8, "unit": "µM"}
    ]}
  ]
}
